US20140087995A1 (published 2014)
Numbered stars: 1 amine (or outer) side, 2 acyl side, 3 side chain; on linkers, the order of the positions; unused ones are H or OH. Bridge positions count the residues as written; N and C are the ends. Side chains are listed from the residue outwards. Ends that are not written are not given here. * marks the point of attachment. C20 diacid = O=C(O)CCCCCCCCCCCCCCCCCCC(=O)*; C18 diacid = O=C(O)CCCCCCCCCCCCCCCCC(=O)*; C16 diacid = O=C(O)CCCCCCCCCCCCCCC(=O)*; γGlu = O=C(O)[C@H](CCC(=O)[*:2])N[*:1]

T1: human calcitonin receptor (human, UniProt P30988 25-474)
T1 sequence (looked up): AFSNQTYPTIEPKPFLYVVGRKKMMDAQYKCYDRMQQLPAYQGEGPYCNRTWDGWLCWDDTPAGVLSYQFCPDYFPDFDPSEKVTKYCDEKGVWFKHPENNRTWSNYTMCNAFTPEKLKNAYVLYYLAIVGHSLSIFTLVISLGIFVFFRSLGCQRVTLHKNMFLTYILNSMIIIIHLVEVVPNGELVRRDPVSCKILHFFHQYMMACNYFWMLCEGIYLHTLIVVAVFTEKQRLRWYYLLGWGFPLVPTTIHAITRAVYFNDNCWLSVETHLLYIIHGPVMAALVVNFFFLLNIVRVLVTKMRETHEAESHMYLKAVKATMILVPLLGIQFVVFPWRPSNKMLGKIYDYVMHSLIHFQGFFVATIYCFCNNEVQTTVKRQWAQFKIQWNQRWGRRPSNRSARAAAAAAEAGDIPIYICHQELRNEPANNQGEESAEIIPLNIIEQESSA

B1: N^ε1-[(4S)-4-carboxy-4-(15-carboxypentadecanoylamino)butanoyl]-[Arg17,Pro21,Pro27,His34]-h-amylin (peptide)
peptide: K([γGlu-C16 diacid])CNTATCATQRLANFLRHSSPNFGAIPSSTNVGHNTY-NH2
modifications: disulfide 2-7; N-terminus assumed
SMILES: CC[C@H](C)[C@H](NC(=O)[C@H](C)NC(=O)CNC(=O)[C@H](Cc1ccccc1)NC(=O)[C@H](CC(N)=O)NC(=O)[C@@H]1CCCN1C(=O)[C@H](CO)NC(=O)[C@H](CO)NC(=O)[C@H](Cc1c[nH]cn1)NC(=O)[C@H](CCCNC(=N)N)NC(=O)[C@H](CC(C)C)NC(=O)[C@H](Cc1ccccc1)NC(=O)[C@H](CC(N)=O)NC(=O)[C@H](C)NC(=O)[C@H](CC(C)C)NC(=O)[C@H](CCCNC(=N)N)NC(=O)[C@H](CCC(N)=O)NC(=O)[C@@H](NC(=O)[C@H](C)NC(=O)[C@@H]1CSSC[C@H](NC(=O)[C@@H](N)CCCCNC(=O)CC[C@H](NC(=O)CCCCCCCCCCCCCCC(=O)O)C(=O)O)C(=O)N[C@@H](CC(N)=O)C(=O)N[C@@H]([C@@H](C)O)C(=O)N[C@@H](C)C(=O)N[C@@H]([C@@H](C)O)C(=O)N1)[C@@H](C)O)C(=O)N1CCC[C@H]1C(=O)N[C@@H](CO)C(=O)N[C@@H](CO)C(=O)N[C@H](C(=O)N[C@@H](CC(N)=O)C(=O)N[C@H](C(=O)NCC(=O)N[C@@H](Cc1c[nH]cn1)C(=O)N[C@@H](CC(N)=O)C(=O)N[C@H](C(=O)N[C@@H](Cc1ccc(O)cc1)C(N)=O)[C@@H](C)O)C(C)C)[C@@H](C)O
notes: synthetic peptide amide
B2: N^ε1-[(4S)-4-carboxy-4-(19-carboxynonadecanoylamino)butanoyl]-[Glu14,Arg17,Pro21,Pro27,Arg34,Glu35]-h-amylin (peptide)
peptide: K([γGlu-C20 diacid])CNTATCATQRLAEFLRHSSPNFGAIPSSTNVGRETY-NH2
modifications: disulfide 2-7; N-terminus assumed
SMILES: CC[C@H](C)[C@H](NC(=O)[C@H](C)NC(=O)CNC(=O)[C@H](Cc1ccccc1)NC(=O)[C@H](CC(N)=O)NC(=O)[C@@H]1CCCN1C(=O)[C@H](CO)NC(=O)[C@H](CO)NC(=O)[C@H](Cc1c[nH]cn1)NC(=O)[C@H](CCCNC(=N)N)NC(=O)[C@H](CC(C)C)NC(=O)[C@H](Cc1ccccc1)NC(=O)[C@H](CCC(=O)O)NC(=O)[C@H](C)NC(=O)[C@H](CC(C)C)NC(=O)[C@H](CCCNC(=N)N)NC(=O)[C@H](CCC(N)=O)NC(=O)[C@@H](NC(=O)[C@H](C)NC(=O)[C@@H]1CSSC[C@H](NC(=O)[C@@H](N)CCCCNC(=O)CC[C@H](NC(=O)CCCCCCCCCCCCCCCCCCC(=O)O)C(=O)O)C(=O)N[C@@H](CC(N)=O)C(=O)N[C@@H]([C@@H](C)O)C(=O)N[C@@H](C)C(=O)N[C@@H]([C@@H](C)O)C(=O)N1)[C@@H](C)O)C(=O)N1CCC[C@H]1C(=O)N[C@@H](CO)C(=O)N[C@@H](CO)C(=O)N[C@H](C(=O)N[C@@H](CC(N)=O)C(=O)N[C@H](C(=O)NCC(=O)N[C@@H](CCCNC(=N)N)C(=O)N[C@@H](CCC(=O)O)C(=O)N[C@H](C(=O)N[C@@H](Cc1ccc(O)cc1)C(N)=O)[C@@H](C)O)C(C)C)[C@@H](C)O
notes: synthetic peptide amide
B3: N^ε1-[(4S)-4-carboxy-4-(19-carboxynonadecanoylamino)butanoyl]-[Glu14,Arg17,Pro21,Pro27,His34,Glu35]-h-amylin (peptide)
peptide: K([γGlu-C20 diacid])CNTATCATQRLAEFLRHSSPNFGAIPSSTNVGHETY-NH2
modifications: disulfide 2-7; N-terminus assumed
SMILES: CC[C@H](C)[C@H](NC(=O)[C@H](C)NC(=O)CNC(=O)[C@H](Cc1ccccc1)NC(=O)[C@H](CC(N)=O)NC(=O)[C@@H]1CCCN1C(=O)[C@H](CO)NC(=O)[C@H](CO)NC(=O)[C@H](Cc1c[nH]cn1)NC(=O)[C@H](CCCNC(=N)N)NC(=O)[C@H](CC(C)C)NC(=O)[C@H](Cc1ccccc1)NC(=O)[C@H](CCC(=O)O)NC(=O)[C@H](C)NC(=O)[C@H](CC(C)C)NC(=O)[C@H](CCCNC(=N)N)NC(=O)[C@H](CCC(N)=O)NC(=O)[C@@H](NC(=O)[C@H](C)NC(=O)[C@@H]1CSSC[C@H](NC(=O)[C@@H](N)CCCCNC(=O)CC[C@H](NC(=O)CCCCCCCCCCCCCCCCCCC(=O)O)C(=O)O)C(=O)N[C@@H](CC(N)=O)C(=O)N[C@@H]([C@@H](C)O)C(=O)N[C@@H](C)C(=O)N[C@@H]([C@@H](C)O)C(=O)N1)[C@@H](C)O)C(=O)N1CCC[C@H]1C(=O)N[C@@H](CO)C(=O)N[C@@H](CO)C(=O)N[C@H](C(=O)N[C@@H](CC(N)=O)C(=O)N[C@H](C(=O)NCC(=O)N[C@@H](Cc1c[nH]cn1)C(=O)N[C@@H](CCC(=O)O)C(=O)N[C@H](C(=O)N[C@@H](Cc1ccc(O)cc1)C(N)=O)[C@@H](C)O)C(C)C)[C@@H](C)O
notes: synthetic peptide amide; also called compound 107
B4: N^ε1-[(4S)-4-carboxy-4-(19-carboxynonadecanoylamino)butanoyl]-[Asp14,Arg17,Pro21,Pro27,Pro34,Arg35]-h-amylin (peptide)
peptide: K([γGlu-C20 diacid])CNTATCATQRLADFLRHSSPNFGAIPSSTNVGPRTY-NH2
modifications: disulfide 2-7; N-terminus assumed
SMILES: CC[C@H](C)[C@H](NC(=O)[C@H](C)NC(=O)CNC(=O)[C@H](Cc1ccccc1)NC(=O)[C@H](CC(N)=O)NC(=O)[C@@H]1CCCN1C(=O)[C@H](CO)NC(=O)[C@H](CO)NC(=O)[C@H](Cc1c[nH]cn1)NC(=O)[C@H](CCCNC(=N)N)NC(=O)[C@H](CC(C)C)NC(=O)[C@H](Cc1ccccc1)NC(=O)[C@H](CC(=O)O)NC(=O)[C@H](C)NC(=O)[C@H](CC(C)C)NC(=O)[C@H](CCCNC(=N)N)NC(=O)[C@H](CCC(N)=O)NC(=O)[C@@H](NC(=O)[C@H](C)NC(=O)[C@@H]1CSSC[C@H](NC(=O)[C@@H](N)CCCCNC(=O)CC[C@H](NC(=O)CCCCCCCCCCCCCCCCCCC(=O)O)C(=O)O)C(=O)N[C@@H](CC(N)=O)C(=O)N[C@@H]([C@@H](C)O)C(=O)N[C@@H](C)C(=O)N[C@@H]([C@@H](C)O)C(=O)N1)[C@@H](C)O)C(=O)N1CCC[C@H]1C(=O)N[C@@H](CO)C(=O)N[C@@H](CO)C(=O)N[C@H](C(=O)N[C@@H](CC(N)=O)C(=O)N[C@H](C(=O)NCC(=O)N1CCC[C@H]1C(=O)N[C@@H](CCCNC(=N)N)C(=O)N[C@H](C(=O)N[C@@H](Cc1ccc(O)cc1)C(N)=O)[C@@H](C)O)C(C)C)[C@@H](C)O
notes: synthetic peptide amide
B5: N^ε1-[(4S)-4-carboxy-4-(19-carboxynonadecanoylamino)butanoyl]-[Glu14,Arg17,Pro21,Pro27,His35]-h-amylin (peptide)
peptide: K([γGlu-C20 diacid])CNTATCATQRLAEFLRHSSPNFGAIPSSTNVGSHTY-NH2
modifications: disulfide 2-7; N-terminus assumed
SMILES: CC[C@H](C)[C@H](NC(=O)[C@H](C)NC(=O)CNC(=O)[C@H](Cc1ccccc1)NC(=O)[C@H](CC(N)=O)NC(=O)[C@@H]1CCCN1C(=O)[C@H](CO)NC(=O)[C@H](CO)NC(=O)[C@H](Cc1c[nH]cn1)NC(=O)[C@H](CCCNC(=N)N)NC(=O)[C@H](CC(C)C)NC(=O)[C@H](Cc1ccccc1)NC(=O)[C@H](CCC(=O)O)NC(=O)[C@H](C)NC(=O)[C@H](CC(C)C)NC(=O)[C@H](CCCNC(=N)N)NC(=O)[C@H](CCC(N)=O)NC(=O)[C@@H](NC(=O)[C@H](C)NC(=O)[C@@H]1CSSC[C@H](NC(=O)[C@@H](N)CCCCNC(=O)CC[C@H](NC(=O)CCCCCCCCCCCCCCCCCCC(=O)O)C(=O)O)C(=O)N[C@@H](CC(N)=O)C(=O)N[C@@H]([C@@H](C)O)C(=O)N[C@@H](C)C(=O)N[C@@H]([C@@H](C)O)C(=O)N1)[C@@H](C)O)C(=O)N1CCC[C@H]1C(=O)N[C@@H](CO)C(=O)N[C@@H](CO)C(=O)N[C@H](C(=O)N[C@@H](CC(N)=O)C(=O)N[C@H](C(=O)NCC(=O)N[C@@H](CO)C(=O)N[C@@H](Cc1c[nH]cn1)C(=O)N[C@H](C(=O)N[C@@H](Cc1ccc(O)cc1)C(N)=O)[C@@H](C)O)C(C)C)[C@@H](C)O
notes: synthetic peptide amide
B6: N^ε1-[(4S)-4-carboxy-4-(17-carboxyheptadecanoylamino)butanoyl]-[Arg17,Pro21,Pro27,His34]-h-amylin (peptide)
peptide: K([γGlu-C18 diacid])CNTATCATQRLANFLRHSSPNFGAIPSSTNVGHNTY-NH2
modifications: disulfide 2-7; N-terminus assumed
SMILES: CC[C@H](C)[C@H](NC(=O)[C@H](C)NC(=O)CNC(=O)[C@H](Cc1ccccc1)NC(=O)[C@H](CC(N)=O)NC(=O)[C@@H]1CCCN1C(=O)[C@H](CO)NC(=O)[C@H](CO)NC(=O)[C@H](Cc1c[nH]cn1)NC(=O)[C@H](CCCNC(=N)N)NC(=O)[C@H](CC(C)C)NC(=O)[C@H](Cc1ccccc1)NC(=O)[C@H](CC(N)=O)NC(=O)[C@H](C)NC(=O)[C@H](CC(C)C)NC(=O)[C@H](CCCNC(=N)N)NC(=O)[C@H](CCC(N)=O)NC(=O)[C@@H](NC(=O)[C@H](C)NC(=O)[C@@H]1CSSC[C@H](NC(=O)[C@@H](N)CCCCNC(=O)CC[C@H](NC(=O)CCCCCCCCCCCCCCCCC(=O)O)C(=O)O)C(=O)N[C@@H](CC(N)=O)C(=O)N[C@@H]([C@@H](C)O)C(=O)N[C@@H](C)C(=O)N[C@@H]([C@@H](C)O)C(=O)N1)[C@@H](C)O)C(=O)N1CCC[C@H]1C(=O)N[C@@H](CO)C(=O)N[C@@H](CO)C(=O)N[C@H](C(=O)N[C@@H](CC(N)=O)C(=O)N[C@H](C(=O)NCC(=O)N[C@@H](Cc1c[nH]cn1)C(=O)N[C@@H](CC(N)=O)C(=O)N[C@H](C(=O)N[C@@H](Cc1ccc(O)cc1)C(N)=O)[C@@H](C)O)C(C)C)[C@@H](C)O
notes: synthetic peptide amide

Biological target: T1, human calcitonin receptor
Experiment: cell-based or functional assay

Row | hCTR funct. EC50 (pM) | Binder
1 | 2210 pM | B1
2 | 2740 pM | B2
3 | 2540 pM | B3
4 | 3640 pM | B4
5 | 5580 pM | B5
6 | 5850 pM | B6
